In the supplement of paper PMC9112550, “Optimization of the antimicrobial peptide Bac7 by deep mutational scanning” (BMC Biology, 2022):

What follows are sequences tested on Escherichia coli TOP10 (assay: shrunken log2 fold change of peptide-encoding DNA abundance (4.5 h post-induction vs induction); higher = less antimicrobial activity (less host growth inhibition)). Details: time post-induction: 4.5 h; library: site-saturation at positions 5, 18, 19, 20.
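Note: peptides expressed intracellularly from a pBAD plasmid library in pooled LB shake-flask culture, induced with 0.3% L-arabinose, DNA abundance read by NGS, three biological replicates, DESeq2 with apeglm shrinkage.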

Sequence | shrunken log2 fold change
RRIRLRPPRLPRPRPRPKKSPRP | 0.018
RRIRIRPPRLPRPRPRPIWDPRP | -0.282
RRIRCRPPRLPRPRPRPHLCPRP | -0.111
RRIRHRPPRLPRPRPRPFINPRP | -0.205
RRIRHRPPRLPRPRPRPQFRPRP | -0.0324
RRIRHRPPRLPRPRPRPQHCPRP | -0.503
RRIRDRPPRLPRPRPRPFATPRP | 0.271
RRIRSRPPRLPRPRPRPNDDPRP | 0.0402
RRIRCRPPRLPRPRPRPLVCPRP | -0.0544
RRIRCRPPRLPRPRPRPNPLPRP | -0.131
RRIRWRPPRLPRPRPRPLWAPRP | 0.417
RRIRARPPRLPRPRPRPRGFPRP | 0.604
RRIRSRPPRLPRPRPRPNCIPRP | -0.416
RRIRYRPPRLPRPRPRPYNNPRP | -1.43
RRIRPRPPRLPRPRPRPRREPRP | 0.187
RRIRCRPPRLPRPRPRPCLEPRP | -0.0191
RRIRSRPPRLPRPRPRPSKTPRP | -0.159
RRIRERPPRLPRPRPRPPYHPRP | -0.456
RRIRFRPPRLPRPRPRPLGGPRP | -0.235
RRIRMRPPRLPRPRPRPESLPRP | 1.69
RRIRFRPPRLPRPRPRPDCCPRP | -0.0954
RRIRPRPPRLPRPRPRPDAVPRP | 0.325
RRIRPRPPRLPRPRPRPPARPRP | 0.748
RRIRRRPPRLPRPRPRPACAPRP | 0.727
RRIRNRPPRLPRPRPRPAFWPRP | 0.0558

Sequence | shrunken log2 fold change
RRIRMRPPRLPRPRPRPHSSPRP | 0.0203
RRIRERPPRLPRPRPRPDPTPRP | -0.0306
RRIRVRPPRLPRPRPRPILKPRP | -0.203
RRIRMRPPRLPRPRPRPIYHPRP | -0.322
RRIRCRPPRLPRPRPRPQWRPRP | 0.274
RRIRDRPPRLPRPRPRPDTVPRP | -0.0743
RRIRTRPPRLPRPRPRPCQKPRP | 0.0124
RRIRKRPPRLPRPRPRPGRAPRP | 0.786
RRIRRRPPRLPRPRPRPLVYPRP | -0.325
RRIRCRPPRLPRPRPRPIFVPRP | -0.284
RRIRVRPPRLPRPRPRPHMSPRP | -0.405
RRIRNRPPRLPRPRPRPGVFPRP | 0.117
RRIRDRPPRLPRPRPRPGMIPRP | 0.133
RRIRQRPPRLPRPRPRPPRQPRP | 0.101
RRIRIRPPRLPRPRPRPGRAPRP | 0.431
RRIRWRPPRLPRPRPRPYMAPRP | -0.247
RRIRVRPPRLPRPRPRPHWAPRP | 0.142
RRIRERPPRLPRPRPRPWPFPRP | -0.0819
RRIRSRPPRLPRPRPRPFTNPRP | -0.0617
RRIRMRPPRLPRPRPRPSCTPRP | -0.0592
RRIRQRPPRLPRPRPRPMYNPRP | -0.545
RRIRTRPPRLPRPRPRPATWPRP | 0.164
RRIRNRPPRLPRPRPRPPKNPRP | 0.196
RRIRKRPPRLPRPRPRPVSGPRP | 0.233
RRIRIRPPRLPRPRPRPVLRPRP | -0.0796

Sequence | shrunken log2 fold change
RRIRPRPPRLPRPRPRPTVNPRP | -0.157
RRIRRRPPRLPRPRPRPGITPRP | -0.0143
RRIRVRPPRLPRPRPRPGKQPRP | 0.0812
RRIRDRPPRLPRPRPRPTFTPRP | 0.347
RRIRYRPPRLPRPRPRPEWTPRP | -0.247
RRIRHRPPRLPRPRPRPLPTPRP | 0.245
RRIRIRPPRLPRPRPRPTWTPRP | 0.398
RRIRFRPPRLPRPRPRPAKTPRP | -0.0138
RRIRIRPPRLPRPRPRPVIFPRP | -0.402
RRIRTRPPRLPRPRPRPSGSPRP | 0.204
RRIRGRPPRLPRPRPRPDMQPRP | 0.37
RRIRVRPPRLPRPRPRPMVAPRP | -0.148
RRIRLRPPRLPRPRPRPVLLPRP | 0.0821
RRIRARPPRLPRPRPRPNATPRP | 1.97
RRIRARPPRLPRPRPRPNLMPRP | -0.0139
RRIRGRPPRLPRPRPRPTAHPRP | 1.12
RRIRARPPRLPRPRPRPATTPRP | 0.681
RRIRARPPRLPRPRPRPNSQPRP | 0.0062
RRIRTRPPRLPRPRPRPMSRPRP | -0.361
RRIRGRPPRLPRPRPRPDAAPRP | 3.73
RRIRHRPPRLPRPRPRPRAPPRP | 0.741
RRIRNRPPRLPRPRPRPSEEPRP | 0.0717
RRIRCRPPRLPRPRPRPCWQPRP | -0.0116
RRIRCRPPRLPRPRPRPSYRPRP | -0.242
RRIRNRPPRLPRPRPRPRVVPRP | 0.078

Sequence | shrunken log2 fold change
RRIRARPPRLPRPRPRPTCKPRP | 0.0463
RRIRCRPPRLPRPRPRPHVYPRP | -0.899
RRIRTRPPRLPRPRPRPHSIPRP | -0.0668
RRIRCRPPRLPRPRPRPPKWPRP | 0.447
RRIRQRPPRLPRPRPRPHDHPRP | -0.0539
RRIRDRPPRLPRPRPRPPVGPRP | 0.348
RRIRPRPPRLPRPRPRPFELPRP | -0.284
RRIRHRPPRLPRPRPRPHQHPRP | -0.526
RRIRERPPRLPRPRPRPENEPRP | -0.0522
RRIRPRPPRLPRPRPRPGVSPRP | -0.0412
RRIRIRPPRLPRPRPRPRGGPRP | 0.217
RRIRCRPPRLPRPRPRPGLRPRP | 0.147
RRIRKRPPRLPRPRPRPRMIPRP | -0.00692
RRIRERPPRLPRPRPRPGASPRP | 0.075
RRIRIRPPRLPRPRPRPRLTPRP | -0.0559
RRIRYRPPRLPRPRPRPTQMPRP | -0.213
RRIRERPPRLPRPRPRPLIQPRP | -0.28
RRIRPRPPRLPRPRPRPLILPRP | -0.559
RRIRARPPRLPRPRPRPKHNPRP | 0.114
RRIRARPPRLPRPRPRPLLMPRP | 0.384
RRIRIRPPRLPRPRPRPYNPPRP | -0.276
RRIRCRPPRLPRPRPRPWIDPRP | -0.00146
RRIRLRPPRLPRPRPRPVNEPRP | -0.0825
RRIRSRPPRLPRPRPRPKSAPRP | 0.403
RRIRYRPPRLPRPRPRPCIVPRP | -0.246

Sequence | shrunken log2 fold change
RRIRDRPPRLPRPRPRPHPAPRP | 0.145
RRIRDRPPRLPRPRPRPLCMPRP | 0.43
RRIRYRPPRLPRPRPRPFWQPRP | -0.122
RRIRHRPPRLPRPRPRPWSHPRP | 0.0143
RRIRPRPPRLPRPRPRPYEHPRP | -0.408
RRIRNRPPRLPRPRPRPIAKPRP | -0.000903
RRIRKRPPRLPRPRPRPMEVPRP | 0.101
RRIRHRPPRLPRPRPRPEAMPRP | -0.00857
RRIRDRPPRLPRPRPRPLKSPRP | 0.00491
RRIRWRPPRLPRPRPRPPHEPRP | 0.0628
RRIRWRPPRLPRPRPRPMEAPRP | 0.0987
RRIRERPPRLPRPRPRPAGIPRP | -0.536
RRIRQRPPRLPRPRPRPWIVPRP | -0.0927
RRIRNRPPRLPRPRPRPNSAPRP | 0.026
RRIRYRPPRLPRPRPRPSKFPRP | -0.299
RRIRPRPPRLPRPRPRPISKPRP | -0.306
RRIRERPPRLPRPRPRPEAMPRP | 0.0431
RRIRIRPPRLPRPRPRPLTQPRP | -0.648
RRIRCRPPRLPRPRPRPLTEPRP | 0.131
RRIRTRPPRLPRPRPRPQTLPRP | -0.278
RRIRYRPPRLPRPRPRPIHFPRP | -0.679
RRIRMRPPRLPRPRPRPQDPPRP | 0.786
RRIRMRPPRLPRPRPRPFQTPRP | 0.00707
RRIRGRPPRLPRPRPRPCGWPRP | 1.34
RRIRVRPPRLPRPRPRPDEQPRP | 0.353

Sequence | shrunken log2 fold change
RRIRCRPPRLPRPRPRPWPEPRP | -0.15
RRIRTRPPRLPRPRPRPHENPRP | 0.00752
RRIRMRPPRLPRPRPRPYLNPRP | 0.00358
RRIRGRPPRLPRPRPRPCSKPRP | 0.09
RRIRERPPRLPRPRPRPNWNPRP | -0.236
RRIRYRPPRLPRPRPRPQIKPRP | -0.969
RRIRTRPPRLPRPRPRPSYYPRP | -0.786
RRIRCRPPRLPRPRPRPEFLPRP | -0.091
RRIRERPPRLPRPRPRPWLHPRP | -0.262
RRIRDRPPRLPRPRPRPRGNPRP | 0.088
RRIRIRPPRLPRPRPRPPLWPRP | 0.504
RRIRVRPPRLPRPRPRPIITPRP | -0.844
RRIRTRPPRLPRPRPRPHSLPRP | 0.0291
RRIRTRPPRLPRPRPRPGFCPRP | 0.106
RRIRIRPPRLPRPRPRPGDWPRP | 0.585
RRIRGRPPRLPRPRPRPIFDPRP | 0.378
RRIRDRPPRLPRPRPRPVVVPRP | 0.328
RRIRKRPPRLPRPRPRPWIIPRP | -0.277
RRIRRRPPRLPRPRPRPKEFPRP | 0.0689
RRIRHRPPRLPRPRPRPYMTPRP | -0.313
RRIRERPPRLPRPRPRPIEVPRP | -0.00196
RRIRWRPPRLPRPRPRPNSMPRP | -0.114
RRIRDRPPRLPRPRPRPANKPRP | -0.261
RRIRNRPPRLPRPRPRPMSLPRP | -0.0381
RRIRSRPPRLPRPRPRPLNCPRP | -0.374
